Assay results taken from PMC7367873, “Dissecting the sequence determinants for dephosphorylation by the catalytic subunits of phosphatases PP1 and PP2A” (Nature Communications, 2020).

Key:
[1] = system: GFP-14-3-3β and its binding proteins; test: GFP-14-3-3β co-IP with LC-MS/MS label-free quantification, untreated versus PP1c-treated; parameters: species or system human; conditions: PP1 vs untreated; LFQ intensities; 3 replicates each
GFP-14-3-3β = GFP-14-3-3β co-IP with LC-MS/MS, untreated GFP-14-3-3β versus GFP control (14-3-3 interactome); type: binding, human; conditions: untreated vs GFP; LFQ intensities; 3 replicates each

Molecule	Difference (log2), PP1 vs untreated [1] [log2]	Difference (log2), untreated vs GFP (GFP-14-3-3β) [log2]
HNRNPD (protein, UniProt Q14103 2-355, looked up) Heterogeneous nuclear …: SEEQFGGDGAAAAATAAVGGSAGEQEGAMVAATQGAAAAAGSGAGTGGGTASGGTEGGSAESEGAKIDASKNEEDEGHSNSSPRHSEAATAQREEWKMFIGGLSWDTTKKDLKDYFSKFGEVVDCTLKLDPITGRSRGFGFVLFKESESVDKVMDQKEHKLNGKVIDPKRAKAMKTKEPVKKIFVGGLSPDTPEEKIREYFGGFGEVESIELPMDNKTNKRRGFCFITFKEEEPVKKIMEKKYHNVGLSKCEIKVAMSKEQYQQQQQWGSRGGFAGRARGRGGGPSQNWNQGYSNYWNQGYGNYGYNSQGYGGYGGYDYTGYNNYYGYGDYSNQQSGYGKVSRRGGHQNSYKPY	0.5387	0.1919
DHX29 (protein, UniProt Q7Z478 1-1369, looked up) ATP-dependent RNA helicase …: MGGKNKKHKAPAAAVVRAAVSASRAKSAEAGIAGEAQSKKPVSRPATAAAAAAGSREPRVKQGPKIYSFNSTNDSSGPANLDKSILKVVINNKLEQRIIGVINEHKKQNNDKGMISGRLTAKKLQDLYMALQAFSFKTKDIEDAMTNTLLYGGDLHSALDWLCLNLSDDALPEGFSQEFEEQQPKSRPKFQSPQIQATISPPLQPKTKTYEEDPKSKPKKEEKNMEVNMKEWILRYAEQQNEEEKNENSKSLEEEEKFDPNERYLHLAAKLLDAKEQAATFKLEKNKQGQKEAQEKIRKFQREMETLEDHPVFNPAMKISHQQNERKKPPVATEGESALNFNLFEKSAAATEEEKDKKKEPHDVRNFDYTARSWTGKSPKQFLIDWVRKNLPKSPNPSFEKVPVGRYWKCRVRVIKSEDDVLVVCPTILTEDGMQAQHLGATLALYRLVKGQSVHQLLPPTYRDVWLEWSDAEKKREELNKMETNKPRDLFIAKLLNKLKQQQQQQQQHSENKRENSEDPEESWENLVSDEDFSALSLESANVEDLEPVRNLFRKLQSTPKYQKLLKERQQLPVFKHRDSIVETLKRHRVVVVAGETGSGKSTQVPHFLLEDLLLNEWEASKCNIVCTQPRRISAVSLANRVCDELGCENGPGGRNSLCGYQIRMESRACESTRLLYCTTGVLLRKLQEDGLLSNVSHVIVDEVHERSVQSDFLLIILKEILQKRSDLHLILMSATVDSEKFSTYFTHCPILRISGRSYPVEVFHLEDIIEETGFVLEKDSEYCQKFLEEEEEVTINVTSKAGGIKKYQEYIPVQTGAHADLNPFYQKYSSRTQHAILYMNPHKINLDLILELLAYLDKSPQFRNIEGAVLIFLPGLAHIQQLYDLLSNDRRFYSERYKVIALHSILSTQDQAAAFTLPPPGVRKIVLATNIAETGITIPDVVFVIDTGRTKENKYHESSQMSSLVETFVSKASALQRQGRAGRVRDGFCFRMYTRERFEGFMDYSVPEILRVPLEELCLHIMKCNLGSPEDFLSKALDPPQLQVISNAMNLLRKIGACELNEPKLTPLGQHLAALPVNVKIGKMLIFGAIFGCLDPVATLAAVMTEKSPFTTPIGRKDEADLAKSALAMADSDHLTIYNAYLGWKKARQEGGYRSEITYCRRNFLNRTSLLTLEDVKQELIKLVKAAGFSSSTTSTSWEGNRASQTLSFQEIALLKAVLVAGLYDNVGKIIYTKSVDVTEKLACIVETAQGKAQVHPSSVNRDLQTHGWLLYQEKIRYARVYLRETTLITPFPVLLFGGDIEVQHRERLLSIDGWIYFQAPVKIAVIFKQLRVLIDSVLRKKLENPKMSLENDKILQIITELIKTENN	0.5459	1.239

The next lines start with results.

Difference (log2), PP1 vs untreated [1] [log2]	Molecule	Difference (log2), untreated vs GFP (GFP-14-3-3β) [log2]
0.5451	SLC2A1 (protein, UniProt P11166 1-492, looked up) Solute carrier family 2, …: MEPSSKKLTGRLMLAVGGAVLGSLQFGYNTGVINAPQKVIEEFYNQTWVHRYGESILPTTLTTLWSLSVAIFSVGGMIGSFSVGLFVNRFGRRNSMLMMNLLAFVSAVLMGFSKLGKSFEMLILGRFIIGVYCGLTTGFVPMYVGEVSPTALRGALGTLHQLGIVVGILIAQVFGLDSIMGNKDLWPLLLSIIFIPALLQCIVLPFCPESPRFLLINRNEENRAKSVLKKLRGTADVTHDLQEMKEESRQMMREKKVTILELFRSPAYRQPILIAVVLQLSQQLSGINAVFYYSTSIFEKAGVQQPVYATIGSGIVNTAFTVVSLFVVERAGRRTLHLIGLAGMAGCAILMTIALALLEQLPWMSYLSIVAIFGFVAFFEVGPGPIPWFIVAELFSQGPRPAAIAVAGFSNWTSNFIVGMCFQYVEQLCGPYVFIIFTVLLVLFFIFTYFKVPETKGRTFDEIASGFRQGGASQSDKTPEELFHPLGADSQV	-0.3989
0.5407	RCN1 (protein, UniProt Q15293 30-331, looked up) Reticulocalbin-1: KPTVRKERVVRPDSELGERPPEDNQSFQYDHEAFLGKEDSKTFDQLTPDESKERLGKIVDRIDNDGDGFVTTEELKTWIKRVQKRYIFDNVAKVWKDYDRDKDDKISWEEYKQATYGYYLGNPAEFHDSSDHHTFKKMLPRDERRFKAADLNGDLTATREEFTAFLHPEEFEHMKEIVVLETLEDIDKNGDGFVDQDEYIADMFSHEENGPEPDWVLSEREQFNEFRDLNKDGKLDKDEIRHWILPQDYDHAQAEARHLVYESDKNKDEKLTKEEILENWNMFVGSQATNYGEDLTKNHDEL	-0.5528
0.5277	PHLDB2 (protein, UniProt Q86SQ0 1-1253, looked up) Pleckstrin homology-like …: MEEHSYIQKELDLQNGSLEEDSVVHSVENDSQNMMESLSPKKYSSSLRFKANGDYSGSYLTLSQPVPAKRSPSPLGTSVRSSPSLAKIQGSKQFSYDGTDKNIPMKPPTPLLNTTSSLSGYPLGRADFDHYTGRDSERALRLSEKPPYSKYSSRHKSHDNVYSLGGLEGRKASGSLLAMWNGSSLSDAGPPPISRSGAASMPSSPKQARKMSIQDSLALQPKLTRHKELASENINLRTRKYSSSSLSHMGAYSRSLPRLYRATENQLTPLSLPPRNSLGNSKRTKLGEKDLPHSVIDNDNYLNFSSLSSGALPYKTSASEGNPYVSSTLSVPASPRVARKMLLASTSSCASDDFDQASYVGTNPSHSLLAGESDRVFATRRNFSCGSVEFDEADLESLRQASGTPQPALRERKSSISSISGRDDLMDYHRRQREERLREQEMERLERQRLETILSLCAEYTKPDSRLSTGTTVEDVQKINKELEKLQLSDEESVFEEALMSPDTRYRCHRKDSLPDADLASCGSLSQSSASFFTPRSTRNDELLSDLTRTPPPPSSTFPKASSESSYLSILPKTPEGISEEQRSQELAAMEETRIVILNNLEELKQKIKDINDQMDESFRELDMECALLDGEQKSETTELMKEKEILDHLNRKIAELEKNIVGEKTKEKVKLDAEREKLERLQELYSEQKTQLDNCPESMREQLQQQLKRDADLLDVESKHFEDLEFQQLEHESRLDEEKENLTQQLLREVAEYQRNIVSRKEKISALKKQANHIVQQAQREQDHFVKEKNNLIMMLQREKENLCNLEKKYSSLSGGKGFPVNPNTLKEGYISVNEINEPCGNSTNLSPSTQFPADADAVATEPATAVLASQPQSKEHFRSLEERKKQHKEGLYLSDTLPRKKTTSSISPHFSSATMGRSITPKAHLPLGQSNSCGSVLPPSLAAMAKDSESRRMLRGYNHQQMSEGHRQKSEFYNRTASESNVYLNSFHYPDHSYKDQAFDTLSLDSSDSMETSISACSPDNISSASTSNIARIEEMERLLKQAHAEKTRLLESREREMEAKKRALEEEKRRREILEKRLQEETSQRQKLIEKEVKIRERQRAQARPLTRYLPVRKEDFDLRSHVETAGHNIDTCYHVSITEKTCRGFLIKMGGKIKTWKKRWFVFDRNKRTFSYYADKHETKLKGVIYFQAIEEVYYDHLKNANKSPNPLLTFSVKTHDRIYYMVAPSPEAMRIWMDVIVTGAEGYTHFLL	1.653
